Laboratory results published in patent US20110055976.

Test system: SUMO1-trypsinogen fusion, chloroplast-targeted, extracted from N. benthamiana leaves and refolded
Sequence (chain, as listed by the source): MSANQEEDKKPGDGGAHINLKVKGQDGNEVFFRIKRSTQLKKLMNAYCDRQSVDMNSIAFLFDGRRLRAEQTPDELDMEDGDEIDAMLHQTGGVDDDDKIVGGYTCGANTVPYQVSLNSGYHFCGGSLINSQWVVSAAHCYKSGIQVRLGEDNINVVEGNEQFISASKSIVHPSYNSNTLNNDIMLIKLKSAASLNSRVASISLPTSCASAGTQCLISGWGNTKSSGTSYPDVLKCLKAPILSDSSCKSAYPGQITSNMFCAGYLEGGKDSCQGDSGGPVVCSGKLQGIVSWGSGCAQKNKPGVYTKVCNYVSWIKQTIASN

How did the “kinetics of BAPNA cleavage (absorption at 405 nm) after enterokinase treatment of the folding reaction” value turn out when enterokinase (Sigma, cat. no. E0885) was run?
Its value is “refolded and enterokinase-treated SUMO1-trypsinogen fusion produces active trypsin capable of digesting the substrate BAPNA”.
